{"source": "patent US20130165379A1", "about": "(AMYLIN PHARMACEUTICALS, published 2013)", "binders": {"B1": {"name": "GLP-1 receptor (plasma membrane preparation of rat insulinoma cell line RINm5f) (receptor)", "chain": "GPRPQGATVSLSETVQKWREYRHQCQRFLTEAPLLATGLFCNRTFDDYACWPDGPPGSFVNVSCPWYLPWASSVLQGHVYRFCTAEGIWLHKDNSSLPWRDLSECEESKQGERNSPEEQLLSLYIIYTVGYALSFSALVIASAILVSFRHLHCTRNYIHLNLFASFILRALSVFIKDAALKWMYSTAAQQHQWDGLLSYQDSLGCRLVFLLMQYCVAANYYWLLVEGVYLYTLLAFSVFSEQRIFKLYLSIGWGVPLLFVIPWGIVKYLYEDEGCWTRNSNMNYWLIIRLPILFAIGVNFLVFIRVICIVIAKLKANLMCKTDIKCRLAKSTLTLIPLLGTHEVIFAFVMDEHARGTLRFVKLFTELSFTSFQGFMVAVLYCFVNNEVQMEFRKSWERWRLERLNIQRDSSMKPLKCPTSSVSSGATVGSSVYAATCQNSCS", "notes": "whole, on cells; The receptor stood in a plasma membrane preparation of the cells, not on intact cells; also called GLP-1 receptors; RINm5f membranes"}}, "molecular_target": "T1, Exendin-4 (Heloderma suspectum (Gila monster); …)", "T1 construct": "also called synthetic exendin-4", "experiment": "displacement of radiolabeled GLP-1 from RINm5f plasma membranes", "data": [{"binder": "B1", "values": [{"measurement": "binding result", "value": "binds"}]}]}
